In the supplement of paper PMC9170038:

What follows are sequences tested on MS2 coat protein (assay: apparent KD of MS2 coat protein; higher = weaker reporter binding). Conditions: Eterna round: R107; input ligand: theophylline 20 uM.
Procedure, shortened: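 Illumina sequencing clusters served as templates for on-chip transcription of the designed RNA switches. SNAP-549-labelled MS2 coat protein was then titrated in twofold steps from 0.7 or 1.5 nM to 3 µM, allowing 0.8–1.5 h per step at first and 10–20 min per step later. The buffer held 100 mM Tris-HCl pH 7.5, 80 mM KCl and 4 mM MgCl2, without or with constant ligand. Apparent KD is the median per design of normalised cluster binding-curve fits.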

Sequence	apparent KD of MS2 coat protein
GCCGCGGCCGCGAUACACAUGGGUGUGUAACGAGGACCGGUACGGCCGCCACUCGAGAUGGUGUACAUGAGGAUCACCCAUGUAC [Exclusion Tryp A GF14]	21.5 nM
AAUCUGUCGGGUGAUACCAGCCUCGGCGCAUCUCGCACCGAACAUGAGGAUCACCCAUGUGGCCCUUGGCAGCACAUGACAAAUC [Ermateus]	767 nM
CUACAUUUGUAGAAACCGGUCACCGUUACUCGAGGACCGGUACGGCCGCCACUCGUGUCACGUGAUACAUGAGGAUCACCCAUGU [Tryptophan A 11]	45.7 nM
AGCCGAACCACGGCCGCCACUGUAGACGUGACGAAAGUCGCGUCAACAUGAGGAUCACCCAUGUACAGGACCGGGUGGUCCGGCA [Omei Trp B SS A v2]	11.2 nM
CCGUUUUAUGGCGACAUAGGGCGGACUGAAGGAGCGGGAUAAAACCCAGGUAGGUCGCAGAGAUCCACAUGAGGAUCACCCAUGU [!0.X]	54.5 nM
UAUCCACAUGAGGAUCACCCAUGUAGGGAAGGAGCGGUGAUUUCACCAGGUAGGUCGCCUUGCUGAGGGUAGCCGGUGGAAUCGU [Exclusion - Arginine A (Freestyle 32)]	22.4 nM
GCACCAGGUACGGAUACCAGACGCUGCCGAUUGGGUGGACAUGAGGAUCACCCAUGUAAUGUCCCUUGGCAGCCGUACCUGGUGC [#17 Exclusion-TheophyllineB]	38.8 nM
AAAUAAAACUGACAUACUGACCCAGUGGAAGGAGCGCACGAGGGUGCAGGUAGGUCGCCACAUGAGGAUCACCCAUGUCACGGAA [Esesinonla]	135 nM
CACAUUUUUAGAAGGGCGGUUUCACUCCUGCGAGGACCGGUACGGCCGCCACUCGACAUGAGGAUCACCCAUGUGGAGAAGUUAG [Laesedti]	27.9 nM

Same assay, conditions: Eterna round: R107; input ligand: theophylline 2 mM

Sequence	apparent KD of MS2 coat protein
ACACGAAGCUGAAGGAGCGUGAUAUAAAUUUUUACAUGAGGAUCACCCAUGUUUCAUCGAUCACAGGUAGGUCGCAGAUGCGUGA [JR_SSArginiB_Sub013]	16.9 nM
AACAUGAGGAUCACCCAUGUACAUUUCGAUCGAGGACCGGUACGGCCGCCACUCGAAAACAUGAGGAUCACCCAUGUUCAACAGG [Tryp A SS t4]	390 nM
UGUAUGUGAUUUGAUACCAGACCAGCUGGUGUUCCAUGAGGAUCACCCAUGGAGGUUUGGGUCCCUUGGCAGCAAAUCGCAUACU [SS Theo B #24 Ms16]	23.2 nM
UGAUAUAUGCGAAGGAGCGGGAAAUAUAUAUAUAUAAUCCUAACAUGAGGAUCACCCAUGUCCCAGGUAGGUCGCGCAUAUAUUG [12.D]	77.1 nM
GAUACGCAGUCGGCCGCCACUUGCUAAGGUGACAAACCAAAACAUGAGGAUCACCCAUGUCUGAUAAGGACCGGGACCACCAUGG [theeternabot_sameState_MS2_Trp_B_14]	129 nM
UCGCUCUGGGUGAAUCCCGGAGAUGUGGAAGGAGCGGACGAAAGUCCAGGUAGGUCGCCAUCGAACAUGAGGAUCACCCAUGUAC [Same State - Arginine A (Freestyle 25)]	60.5 nM
AUACGGAACAGAAGGAGCGCACCGACAUGAGGAUCACCCAUGUGGGAUGGGACUCUUUUGGUGCAGGUAGGUCGCUGUCACGCAU [Maistile]	44 nM
GCCGCGGCCGCGAUACACAUGGGUGUGUAACGAGGACCGGUACGGCCGCCACUCGAGAUGGUGUACAUGAGGAUCACCCAUGUAC [Exclusion Tryp A GF14]	17.4 nM
CUACAUUUGUAGAAACCGGUCACCGUUACUCGAGGACCGGUACGGCCGCCACUCGUGUCACGUGAUACAUGAGGAUCACCCAUGU [Tryptophan A 11]	54.8 nM
AGCCGAACCACGGCCGCCACUGUAGACGUGACGAAAGUCGCGUCAACAUGAGGAUCACCCAUGUACAGGACCGGGUGGUCCGGCA [Omei Trp B SS A v2]	8.09 nM
CCGUUUUAUGGCGACAUAGGGCGGACUGAAGGAGCGGGAUAAAACCCAGGUAGGUCGCAGAGAUCCACAUGAGGAUCACCCAUGU [!0.X]	32.8 nM
UAUCCACAUGAGGAUCACCCAUGUAGGGAAGGAGCGGUGAUUUCACCAGGUAGGUCGCCUUGCUGAGGGUAGCCGGUGGAAUCGU [Exclusion - Arginine A (Freestyle 32)]	9.15 nM
GCACCAGGUACGGAUACCAGACGCUGCCGAUUGGGUGGACAUGAGGAUCACCCAUGUAAUGUCCCUUGGCAGCCGUACCUGGUGC [#17 Exclusion-TheophyllineB]	200 nM
AAAUAAAACUGACAUACUGACCCAGUGGAAGGAGCGCACGAGGGUGCAGGUAGGUCGCCACAUGAGGAUCACCCAUGUCACGGAA [Esesinonla]	131 nM
CACAUUUUUAGAAGGGCGGUUUCACUCCUGCGAGGACCGGUACGGCCGCCACUCGACAUGAGGAUCACCCAUGUGGAGAAGUUAG [Laesedti]	30.5 nM

Same assay, conditions: Eterna round: R107; input ligand: tryptophan 2.4 mM

Sequence	apparent KD of MS2 coat protein
ACACGAAGCUGAAGGAGCGUGAUAUAAAUUUUUACAUGAGGAUCACCCAUGUUUCAUCGAUCACAGGUAGGUCGCAGAUGCGUGA [JR_SSArginiB_Sub013]	14.8 nM
AGCGACAUGCGUGAUACCAGCUACAUGAGGAUCACCCAUGUAAGUAGGAAACUACUGUGUAGCCCUUGGCAGCACAGUGCAUGUC [Exclusion - Theophylline B (Freestyle 23)]	10.8 nM
UGUAUGUGAUUUGAUACCAGACCAGCUGGUGUUCCAUGAGGAUCACCCAUGGAGGUUUGGGUCCCUUGGCAGCAAAUCGCAUACU [SS Theo B #24 Ms16]	30.3 nM
UGAUAUAUGCGAAGGAGCGGGAAAUAUAUAUAUAUAAUCCUAACAUGAGGAUCACCCAUGUCCCAGGUAGGUCGCGCAUAUAUUG [12.D]	59.7 nM
UCGCUCUGGGUGAAUCCCGGAGAUGUGGAAGGAGCGGACGAAAGUCCAGGUAGGUCGCCAUCGAACAUGAGGAUCACCCAUGUAC [Same State - Arginine A (Freestyle 25)]	21.8 nM
AUACGGAACAGAAGGAGCGCACCGACAUGAGGAUCACCCAUGUGGGAUGGGACUCUUUUGGUGCAGGUAGGUCGCUGUCACGCAU [Maistile]	35.5 nM
GCCGCGGCCGCGAUACACAUGGGUGUGUAACGAGGACCGGUACGGCCGCCACUCGAGAUGGUGUACAUGAGGAUCACCCAUGUAC [Exclusion Tryp A GF14]	13.4 nM
AAUCUGUCGGGUGAUACCAGCCUCGGCGCAUCUCGCACCGAACAUGAGGAUCACCCAUGUGGCCCUUGGCAGCACAUGACAAAUC [Ermateus]	654 nM
AGCCGAACCACGGCCGCCACUGUAGACGUGACGAAAGUCGCGUCAACAUGAGGAUCACCCAUGUACAGGACCGGGUGGUCCGGCA [Omei Trp B SS A v2]	6.75 nM
CCGUUUUAUGGCGACAUAGGGCGGACUGAAGGAGCGGGAUAAAACCCAGGUAGGUCGCAGAGAUCCACAUGAGGAUCACCCAUGU [!0.X]	35.9 nM
UAUCCACAUGAGGAUCACCCAUGUAGGGAAGGAGCGGUGAUUUCACCAGGUAGGUCGCCUUGCUGAGGGUAGCCGGUGGAAUCGU [Exclusion - Arginine A (Freestyle 32)]	10.9 nM
GCACCAGGUACGGAUACCAGACGCUGCCGAUUGGGUGGACAUGAGGAUCACCCAUGUAAUGUCCCUUGGCAGCCGUACCUGGUGC [#17 Exclusion-TheophyllineB]	17.8 nM
AAAUAAAACUGACAUACUGACCCAGUGGAAGGAGCGCACGAGGGUGCAGGUAGGUCGCCACAUGAGGAUCACCCAUGUCACGGAA [Esesinonla]	86.7 nM
